The RNAGym collection of RNA variant scans (doi:10.1073/pnas.2313332121)
Fewer inactive variants are shown than the library holds.

B1: TPR 5TU (parent)
chain: GGAUCUUCUCGAUCUAACAAAAAAGACAAAUCUGCCACAAAGCUUGAGAGCAUCUUCGGAUGCAGAGGCGGCAGCCUUCGGUGGCGCGAUAGCGCCAACGUUCUCAACUAUGACACGCAAAACGCGUGCUCCGUUGAAUGGAGUUUAUCAUG

Variants of: B1
Assay: polymerase ribozyme fitness, log enrichment relative to wild type (log ratio); higher = more active; in vitro selection for triplet polymerase activity
Procedure, shortened: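 Mutant libraries of each subunit of a heterodimeric triplet polymerase ribozyme were built by PCR and transcribed. Each library went through one round of in vitro selection in triplicate: annealing with biotinylated primer, partner subunit and triplets, frozen incubation at −7 °C, gel excision of extended constructs, streptavidin-bead capture and RT-PCR. Input and output libraries were Illumina-sequenced; only genotypes with ≥10 input reads and ≥1 read per output were kept. Fitness is log2(genotype enrichment/wild-type enrichment), using inverse-variance-weighted replicate averages.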

Row | Variant | polymerase ribozyme fitness (log ratio)
1 | GGAUCUUGUCGAUCUAACAAGAAAGAAAAAUCUGCCACAAAGCUUGAGAGCAUCUUCGGAUGCAGAGGCGGCCGCCUUCGGUGGCGCGAUACCGCCAACGUUCGCAACUAUGACACGCAAAACGCGUGCUCCGUUGAAUGGAGUUUAUCUUG [C8G A21G C27A A73C G92C U104G A150U] | ≤ -4.2
2 | GGAUCUUCUCGAUCUAACAAAAAAGACAAAUCUGCCACAAAGCUUGCGAGCAUCUUCCGAUGCAGAGGCGGCAGCCUUCGGUGGCGCGAUAGCGCCGAGGUUCUCAACUAUGACACGCAAAACGCGUGAUCCUUUGAAUGGAGUUUAUCAUG [A47C G58C A97G C99G C129A G133U] | ≤ -4.2
3 | GGAUCUUCUCGAUCUAACAAAAAAGACAAAUCUGCCACAAAGCUUGAGAGCAUCCUCGCAUGCAGAGGCGGCAGCCUUCGGUGGCGCGAUAGCGCCAACGUUCUCACCUAUGACACGCAAAACGCGUGCUUCGGUCAAUGGAGUUUAUCAUG [U55C G59C A107C C131U U134G G136C] | ≤ -4.2
4 | GGAUCUUCUCGAUCUAACAAAAAAGACAAAUCUGCUACAACGCUUGCGUGCAUCAUCGGAUGCAGAGGCGGCAGCGUUCGGUGGCGCGAUAGCACCAACGUUCUCAACUCUGGCACGCAAAACGCGUGCUCCGUUGAAUGGAGUUUAGCAUG [C36U A41C A47C A49U U55A C76G G94A A110C A113G U148G] | -4.13
5 | GGAUCUUCUCGAUCUAACGAAAAAGACAAAUCUGCCACAAAGCUUGAGAGCUUCUUCGGAUGCAGAGGCGGCAGCCUUCGGUGGCGCGAUAGCGCUAACGUUCUCAACUAUGACACGCAAAGCGCGUGCUCCGUUGAAUGGAGUUUAUCAUG [A19G A52U C96U A122G] | -2.62
6 | GGAUCUUCUCGAUCUAACAAAAAAGACAAAUCUGCCACAAAGCUUGAGAGCAUCUACGGAUGCAGAGGCGGCAGCCUUCCGUGGCGCGAUAGAGACAACGUGCUCAACUAUGAAACGCAAAACGCGUGCUCCGUUGAAUGGAGUUUAUCUUG [U56A G80C C93A C95A U102G C114A A150U] | ≤ -4.2
7 | GGAUCUUCUCGAUCUAACAAAAAAGACAAAUCUGCCACAAAGCUUGAGAGCCUCUUCGUAUGCAGAGGCGGCAGCCUUCGGUGGCGCGAUAGCGCCAACGUUCUCAACUAUGACACGCAAAACGCGUGCUCCGUUGAAUGGAGUUUAUCAUG [A52C G59U] | -0.875
8 | GGAUCUUCUCGAUCUAACAAAAAAGACAAAUCUGCCACAAAGCUUGAGGGCAUCUUCGGAUGCAGAGGCGGCAGCCUUCGGUGGCGCGAUGUCGCCAACGUUCUCAACUAUGACACGCAAAACGCGUGCUCCGUUGAUUGGAGCUUAUCAUG [A49G A91G G92U A138U U144C] | ≤ -4.2
9 | GGAUCUUCUCGAUCUAACAAAAAAGACCAAUCUGCCACAAAGCUUGAGAGCAUCUUCGGAUGCAGAGGCGGCAGCCUUCGGUGGCGAGAUAGCGCCAACGUUCUCACCUAUGACACGCAAAACGCGUGCUCCGUUGAAUGGAGUUUAUCAUG [A28C C87A A107C] | ≤ -4.2
10 | GGAUCUUCUCGAUCUAACAAAAAAGACAAAUCUGCCACAAAGCUUGAGAGCAUCUUCGGAUGCAGAGGCGGCAGCCUUCGGUGGCGCGUUAGCGCCAACGUUCUCAACUAUGACACGCAAAACGCGUGCUCCGUUGAAUGGAGCUUAUCAUG [A89U U144C] | 0.497
11 | GGAUCUUCUCGAUCUAACAAAAAAGACAAAUCUGCCACAAAGCUUGAGAGCAUCUUCGGAUGCAGAGGCGGCAGCCUUAGGUGGCGCGAUAGUGCCAACGUUCUCAACUAUGACACGCGAAACGCGUGCUCCCUUGAAUGGAGUUUAUCAUG [C79A C93U A119G G133C] | ≤ -4.2
12 | GGAUCUUCUCGAUCUAACAAAAAAGACAAAUCUGCCACAAAGCUUGAGAGCAUCUUCGGAUGCAGAGGCGGCAGACUUCGGUGGCGCGAUAGCGCCAACGUUCUCAACUAUGACACGCAAAACGCGUGCUCCGUUGCAUGGAGUUUAUCUUG [C75A A137C A150U] | ≤ -4.2
13 | GGAUCUUCUCGAUCUAACAAAAAAGACAAAUCUGCCACAAAGCUUGAGAACAUCUUCGGAUGCAGAGGCGGCAGCCUUCGGUGGCGUGAUAGCGCCAAUGUUCUCAACUAUGACACGCAAAACGCGUGCUCCGUUGAAUGGAGUUAAUCAUG [G50A C87U C99U U146A] | -3.96
14 | GGAUCUUCUCGAUCUAACAAAAAAGACAAAUCUGCCACAAAGCUUGAGAGCAUCUUCGGAUGCAGAGGCGGCAGCCUUCGGUGGCGCGAUAGUGCCAACGUUUUCAACUAUGACACGCAAAACGCGUGCUCCGUUGAAUGGAGUUUAUCAUG [C93U C103U] | -1.61
15 | GGAUCUUCUCGAUCUAACAAAAAAGACAAAUCUGCCACAAAGCUUGAGAGCAUCUUCGGAUACAGAGGCGGCAGCCUUCGGUGGUGCGAUAGCGCCAACGUUCUCAACUAUGACUCGCAAAACGCGUGCUCCGUUGAAUGUAGUUUAUCAUG [G62A C85U A115U G141U] | -1.19
16 | GGAUCUUCUAGAUCUAACAAAAAAGACAAAUCUGCCACAAAGCUUGAGAGCAUCUUCGGAUGCAGAGGCGGCAGCCUUCGGUGGCGCGAUAGCGCCAACGUGCUCAACUAUGACACGCAAAACGCGUGCUCCGUUGAAGGGAGUUUAUCUGG [C10A U102G U139G A150U U151G] | ≤ -4.2
17 | GGAUCUUCUCGAUCUAACAAAAAAGACAAAUCUGCCACAAAGCUUGAGAGCAUCUUCGGAUGCAGAGGCGGCAGCCUUCGGUGGUGCGAUAGCGCCAACGUUCUCCACUAUGACACGCAAAACGCGUGCUCCGUUGAAUGGAGUUUAUCAUG [C85U A106C] | -3.33
18 | GGAUCUACUCGAUCUAACAAAAAAGACAAAUGUGCCACAAAGCUUGAGAGCAUCUUCGGAUGCAGCGACGGCAGCCUUCGGUGGCGAGAUAGCGCCAACGUUCUCAACUAUGACACGCAAAACGCGUUCUCCGUUCAAUGGAGUUUAUCAUG [U7A C32G A66C G68A C87A G128U G136C] | ≤ -4.2
19 | GGAUCUUCUUGAUCUAACAAAAAAGACAAAUCUGCCACAAAGCUUGAGAGCAUCUUCGGAUGCAGAGGCGGCAGCCUUCGGUGACGCGAUAGCGCCAACGUUCUCAACUAUGACACGCAAAACGCUUGCUCCGUUGAAUGGAGUUUAUCAUG [C10U G84A G126U] | -4.02
